# Test results published in a protein production outcome set (Wang et al. 2014).
# Assay: label from the status in PepcDB records
row,Sequence,protein production
1,MDFNYTIKALRTKKKLDAKPMTHTDFCYTIKALRSTKKLDAKPKPHTDFGYTIKVLRSRKKLELEPQLDLKSLSSVDLLEDTNSKTHTDFSYTIKASRSKKKLDTKSKTRTVFDYTIKAFRSKKKLDRKPKTHTDFGYTFKAMRSKKKLC,failed
2,MDFQAVTDELKTWTKARVMPGFSVALLTGKTVQTAVSGEAQWFPQPAPLQPHMLYDVASLTKVIGTTTVFLQAWDQGLVSPDMPLHRFLPDFPHTTTFRQALTHTSGLEGYIPHRNALPAPALKQALMTQLTVTEEVDRQVVYRDVNLLLVGWALEQVYHQPIQTLITRQVIQPLALPQATFQPDSQQCVPTTYSPAVGLRQGVVHDPKSAILGKHSGAAGLFASLADLVTFTEYFFGNRQSASWPAHAVDLTQDWTKHHLGRSLGWDLRRDGQGRLWLYHTGYTGTFWLIQPDDQLALVVLTNRVHPQPNPAFLARRDALIARFLSDFKTMPAV,failed
3,MDFRRAPELIGRLQEQAVVPREQGVQRLMRLALEYWLLPVLLLAAAVRFYDLTAAAIWGDEGSSLVLSQYSLSEIWFHAARDVHPPLYFMLLRGWIELFGDGIFSIRTFSALPGIVTVGLGMWLVALLATRRAAILAGVLLALLPTAVRYSQEVRMYALLGLLLLGATLALVYWLRQPSRPGYLVSYALLMTLAFYTHYFTAFCVLAHWLYLAVSGVRAEGGGRLVTRPAWWLANAAIVLLFLPWVPELLDLLRHMDELKANGDVGWEPVVTWSSLPAMVWQLLIQDEGDNLPGALFVGMPLLLLAVCSVLAWRDGAPARFGGLLASFTLLPLLLVFAVSFASPVFIERYLTAYALGLPMIMAVLIDRWLKTARLVALALLLGFVGLEAVGLKNNIDVDANDQISVMVDYVNRHYVAGDRIVISDMLWYLSYVYYNRTDAQPMLYTPPLPGGTSSRPNAYGFGTLIDHPDQVYLDQLSALSVGSGRYWLVGSDDQSEEFAPLPQGWHKVGQFAAGGTRARLFVLCGSAAGASCAGQ,failed
4,MDFSPPTTTADQSRRGFLKKSLAVSATVAAIGSLPRLSAAEPLTQRYPDPLVGVLDDSFLDIRIFNASVEKLATGMRWAEGPVWVGDGRYLLVSDIANNRIMRWDEVTGALSVYREHSNFSNGMCRDRQGRLLVCEGSSTTSEGRRVTRTEYNGRITVLADSFDGKPFNSPNDIVCKHDGSIWFTDPTFQANSDYEGHKVKQEQPFGVYRIDPSSGKVSRVIDDLAGPNGLCFSPDEKTLYVVEGRAKPNGLIWAIAVNEDGTLGERRKHVEGLEYAAIDGIKCDESGNLWCGWGGNGNPKADLEKLDGVRVFNPQGKAIGHISLPERCANLCFGGREGNRLFMASSHSLYSVFVNARGATLA,failed
5,MDFSSNVAAQLNAGTILPEGIVIVTLLLVLIVDLIGGRKVALALPYLAIAGLLVSVGLLVTSWSMADPIGFIGAFNGDNLSIIFRAIIALSTVVTILMSVRYVQQTGTSLAEFIAILLTATLGGMFLSAANELVMVFISLEMLSISSYLMTGYMKRDPRSNEAALKYLLIGASSSAIFLYGLSLLYGLSGGETQLVLIAEKLVNADTVGQSLGLAIALVFVIAGIAFKISAVPFHQWTPDVYEGSPTPVVAFLSVGSKAAGFAVAIRLLVTAFGGITDEWHVIFTALAVLSMVLGNVVALAQTSMKRMLAYSSIGQAGFVMIGLVAGSEDGYASMVFYMLIYLFMNLGAFSCIILFTLRTGSDQISDYAGLYHKDPLLTLGLSICLLSLGGIPPLAGFFGKIYIFWAGWQSGLYGLVLLGLVTSVVSIYYYIRVVKMMVVKEPQEMSEVIKNYPAIKWNLPGMRPLQVGIVATLVATSLAGILANPLFNLATDSVVSTKMLQTALQQTGETPAIAISHDLP,failed
6,MDFSVLLASLGISILELSEASAVAVIFQGIYKNSKPFLYAIAGILIVLVPVFTLGQYIVLLPINYVLLVAAVILAYFGYKLLRSARRSFKGSKKKHEEKEEGIMTVFVVSATEALEAGLVILALIPQSFSSALLGTGIAVIIVIALTIALRSQIMKIRVPHLKFVLSALLFGLATLFVAEALVDIDEVFLPLFFVIYLGVNYLVIKL,failed
7,MDFVFDIDGTLCFDGMSLSKEIQGILERAQIDYGHRVTFATARSYRDTIGILGDKLSLSKIIGLNGATLHENGHLVDSYYLQSDFFSTIISYCHRHQIPYFVDEVFNYATYQASKIPFIAYVDPQKRGELLEVSKIEKPIKMVLYFGDQLGRADQMLAELNRFGLSSHFFHEFEKCLYINPIAVDKGKATKKLFGNRFIAFGNDKNDISMFDAAHYSVQVGDFDELTPYANLRVSRESVHEGITTLFEKYKGIT,failed
8,MDFWPEFMATSWGREFVAGGFGGVAGIISGYPLDTLRIRQQQSSKSGSAFSILRRMLAIEGPSSLYRGMAAPLASVTFQNAMVFQIYAIFSRSFDSSVPLVEPPSYRGVALGGVATGAVQSLLLTPVELIKIRLQLQQTKSGPITLAKSILRRQGLQGLYRGLTITVLRDAPAHGLYFWTYEYVRERLHPGCRKTGQENLRTMLVAGGLAGVASWVACYPLDVVKTRLQQGHGAYEGIADCFRKSVKQEGYTVLWRGLGTAVARAFVVNGAIFAAYEVALRCLFNQSPSPDIVTGD,failed
9,MDGGDDGNLIIKKRFVSEAELDERRKRRQEEWEKVRKPEDPEECPEEVYDPRSLYERLQEQKDRKQQEYEEQFKFKNMVRGLDEDETNFLDEVSRQQELIEKQRREEELKELKEYRNNLKKVGISQENKKEVEKKLTVKPIETKNKFSQAKLLAGAVKHKSSESGNSVKRLKPDPEPDDKNQEPSSCKSLGNTSLSGPSIHCPSAAVCIGILPGLGAYSGSSDSESSSDSEGTINATGKIVSSIFRTNTFLEAP,not failed
10,MDGGFVRVCLLASGSKGNSLFVESDGTRVLIDAGLSAREIVRRLAVIEVEPADLDGLFISHEHVDHVRGVGVLARKYRLPVHVSYPTHHEVREGFGDAPVVEFESGYSFGFRDLLIDPFPITHDACDPVGFTIESKEGKVGIATDLGTATRLVADKLKRCRVLVLESNHDEEMLMGGPYPWHLKQRIKSRHGHLSNNDSAALLAEVLHPGLEGLFLAHLSEVNNDPAVAKEVAENLLVAQTTCSPRLIVGDQYRPSETLTL,failed
11,MDGLHVSILSLVIFIVLFAVFVYLGFYASRWRKGDLSKLPEWALAGRKLGPYLMWFLLTADLFTAYTFIAVPSLVLASGPIGFYAAFYSGVTAFIALLFMPRLWAVSRNKGYVTAADFVKDRFNSKTLAGLVAVTGVVAELPYIALQIVGMQAALSILLLGLGVSNISLVNDLSLLVSFIILAAFVFTSGLRGAALTAVYKDIIILATVITVAIYVPLAFGGFSAAFSNAATYSSQVNSALNGVNKPIFYQYLQSTVSNNLAYISLAIGSAFALYLYPHAVNGSVSADSKKSLKISLALQPFYSLILAIIALFGILVYANTNVLNFIIHAKSGAVAVPALIGYTMPDWFVGVALLGIFIGGLVPAAIMAIGAANLLTRNIIKELKPNMSPNTESSLAKWISTAFKFIALALVFTVPATYAIQLQLLGGVIILQTLPPLFLGLYTHKLNSHSLIAGWVAGMFSGIYLTMLANHFGPIKTTSFITPIGVMYIGAISVIINVAIGLIGTAIAYGVGWRPRTGVKTEELV,failed
12,MDGMGTLTRYLEEAMARARYELIADEEPYYGEIPDLPGVWATGKSLKECEANLQAALEDWLLFLLSRGETPPPLGEVRIELPHGEAA,not failed
13,MDGQQLNRLLLEWIGAWDPFGLGKDAYDVEAASVLQAVYETEDARTLAARIQSIYEFAFDEPIPFPHCLKLARRLLELKQAASCPLP,not failed
14,MDGRDLVRSVKAVGSGGAAGGLRTVRAAWRRRRADASGLPRRGAERARVPGPVQGVVPGPGGGVIRFARSELRITVAVNGAVFWGWDGAGPEPSYALAGRCPEPDPRAVLEPDKDGGWQVVAERGTVMVSRHGAVEVRTPGGVTLRRDLPPRWWEPADGGAAHWMQRSEVAADARFFGLGGRAAGPRLRGGTYRLWNTDPGHAVGPGDDPLYLTMPVQLVVADAATHLVFHDTSWDGTVTLREGEEGAGSGHDRAGTSELRMDGGPLRCWVMMGTPARVLHTWASLTGAPALPPAWALGHHHARRGSGSEQEVRGVVSGYQERGLPLDAVHLDNDHYDAHQVFTVDRDRFPKLPVLAEELRRDGIRLVSVVDPAVRAEPGNAVYDAGSAQDAFVRDAAGRVVEGVVWPGESVYPDFTHARVRKWWGGLYEERLAQGFAGFWHDLNEPVSFTAFGENTLPRSARHLLEGRGGDHREAHNVYALGMARAGYEGLRELSPQERPFIFSRSGWSGMQRYGGAWSGDVTTGWPGLRASLSLVIGLGLCGVPYSGPDVGGFDGSPSPELYLRWFQLGSYLPLFRTRAGLRAGRRELWEFGEDVLEHARVALVERRRLLPYFMTLAHLARRTGAPYVRPVWWGAPEDRALRDCEDAFLLGDSLLVAPVLDPGADRRAVQLPRGRWYDTVTEKAYDGPGQVLIGAPLSRIPVLARAGAVLPVRGDGGRLELEVWRPARGRTGGGLVVPDSGDGWDEPEIEQYVTRLRGQRVVVERDGDEGPGEPSYPVRVRGLPQA,failed
15,MDGSEDDPTIFSARCLPSDPRLWATVTNSYLGTRVYHDTIHINGVYNGAVGDTHRASLPSPLNVQLEAPAGTEQLTETFTLDTNTGSFLHTLEGPSFRASQRIYAHRVLPHVLVFSVSIARLTTGNKPITVPLRADFSPESPDLDLRVGPDFQGLRYLHGHVLNPEQPGEPQQEVHMLWMPVPPALTLGEEEKDRTWEFLTVVGSSQAEAQDCFAEALQLQTRGVLYTIHADSWGRLWAGCGLDVAGPLALRQALRGSLYYLFSELPQPGTQGFISHGLSPGGLSNGSKEECYWGHIFWDQDIWMFPNILMFHPEAARAILEYRVRTLGGALKNGQNLGYQGAKFAWESASTGLEVCPEDIYGTQEIHINGAVALAFQLYYYYTQDSKLFQEDGGWDVVSSVAEFWCSRVEWSSQDKMYHLKGVMPPDEYHSGVNNSVYTNVLVQNSLHFAAALAKDLGLPIRKQWLEVADRIKIPFDSEQNFHPEFDGYERGEEVKQADVVLLGYPVPFPLTPDIRRKNLETYEAVTSPQGPAMTWSMFAVGWMELRDPSRAQVHLSRSFANVTEPFKVWTENADGSGAVNFLTGMGGFLQAALFGCTGFRITEAGVTFDPLCPDLVSRVSVSGISYLGNKINFAFSKDSVTLEVTARAEPWAPLLEAELWPSLAHLPLTPGQKVSFPHSAGRIQRSSP,failed
16,MDHFSYRNTNKMVRTHVVVGSRPCCFSCAMEEKDPCVRKAWLELSLRDMHMIRDDTELALTLSFIWRYAMADPENPELPSLGVFECMTRLMKKGLEDVEWVMTGQNVYVPYYAAHIIGSYTMKKPDFATKAVESGVIAPLLELMRRKMSWVEQRVVVRALGHLASYETTFEAVAAYEDEVVRLAMEIAMTCVDVVYEEFVSVQEKEGRVRYHSDLLTRGLGGLEMEDRKAEEWASQLQCWSLHLLNCFAYKQKCISLICNKTFLKELSQMWGGLVNHTSPSGIGLIRILCYSKQGRRHVSGSREMILSLCNLSRSSDDWQYMGIDCLLLLLKDQATRYNVLEMSLFYLVDLVEVKALNVRKNLGDRITKVLLMHYCKTKKGCAYSHKAQKALKELWRNKVERRRRERKFMSKNQDFLRETSVVVYLIKQQANQLLHVGDIEGAIKCYTEAIGLCPLKLRRKRMNLYSERGECYLLLGDVDAAISDCTRALCLSEPVNSHGKSLWTRSRAYDIKGLSRESLMDCIMFVNGRCFRGNIPYYAAQMISKQMEATWLFEKARASKLGRMMLKEKFHLTGIFIFLYICMNISS,failed
17,MDHKDYSRQNAERRLLLSKDEERIRDELEMEIERNLEGEFKDGIYNLALKLRRLYEQRREREELFDVSMRKSKRVLEVNINIKMEGDTKIEITEKKKEVDNEKTKKAENSDKRKKFVAVGEDKTGKEKMKNQTRAHELRWKW,failed
